This is an account of results in patent US8642834B2, “Methods for the identification of agents that inhibit mesenchymal-like tumor cells or their formation” (OSI Pharmaceuticals, LLC, priority 2009, dated 2014).

Common to all, as to type: cell-based, human
Test [1] has as its system CFPAC-1 cells. The test can be described thus: Cell morphology by light microscopy. The conditions noted are these: treated 7 days; versus untreated cells that formed colonies. On the procedure: The CFPAC1 cell line was cultured in DMEM media (Gibco #11960) supplemented with 10% FBS (Sigma), 2 mM L Glutamine (Gibco), at 37° C., 5% CO2. For 7 day treatments, cells were seeded on tissue culture plastic in complete growth media and allowed to attach overnight at cell densities that would provide approximately 60-80% confluence at end of experiment. Ligand and/or inhibitor was added the following day (Day 0) in complete growth media and incubated at 37° C., 5% CO2. Ligand source and concentrations used are as follows: [1] From R&D systems, SDF-1α (stromal derived factor-1 alpha) at 100 ng/ml, TRANCE (TNF-related activation induced cytokine) at 50 ng/ml, FGF1 (fibroblast growth factor acidic) at 10 ng/ml, FGF2 (fibroblast growth factor basic) at 10 ng/ml, BMP4 (bone morphogenetic protein 4) at 100 ng/ml, BMP7 (bone morphogenetic protein 7) at 100 ng/ml, IGF2 (insulin-like growth factor 2) at 100 ng/ml, OSM (Oncostatin M) at 100 ng/ml, NRG1 (Neuregulin-1) at 50 ng/ml, PDGFaa (Platelet derived growth factor a) at 50 ng/ml, PDGFbb (platelet derive growth factor b) at 30 ng/ml, Ang2 (Angiopoeitin 2) at 400 ng/ml, amphiregulin at 100 ng/ml, HMGB 1 (Human high-mobility group box 1 protein) at 50 ng/ml; [2] […]

Test [2] relates to CFPAC-1 cells. The test can be described thus: MET/EMT reversion experiment (ligand withdrawal). Particulars: ligand 14 days, then removed; morphology and E-cadherin/vimentin immunoblot. On the procedure: Cells were cultured in complete medium with and without ligand for 14 days, during which time the media and ligand treatment was replaced every 3-4 days. 3 Days prior to the first time point (Day 14), cells were trypsinised, counted and seeded into plastic 35 mm dishes at appropriate seeding densities for the first 3 collection time points. 3 Days prior to the last of the 3 collection time points, the procedure was repeated for the second 3 collection time points, and so on until all time points were collected. Ligand was removed from all cultures at Day 14. At the time of harvest, cells were harvested as described in the western blotting section above. All samples were micro-centrifuged and stored at −80° C. until the end of the experiment, at which time all samples were processed for western blotting.
(In general: Immunoblotting shows a protein as a band on a membrane.)

Test [3] has as its system CFPAC-1 cells. Put plainly: Induction of EMT by growth factors and cytokines, E-cadherin and vimentin immunoblotting. The conditions noted are these: CFPAC-1 cells treated 7 days with ligand. On the procedure:
The CFPAC1 cell line was cultured in DMEM media (Gibco #11960) supplemented with 10% FBS (Sigma), 2 mM L Glutamine (Gibco), at 37° C., 5% CO2. For 7 day treatments, cells were seeded on tissue culture plastic in complete growth media and allowed to attach overnight at cell densities that would provide approximately 60-80% confluence at end of experiment. Ligand and/or inhibitor was added the following day (Day 0) in complete growth media and incubated at 37° C., 5% CO2. Ligand source and concentrations used are as follows: [1] From R&D systems, SDF-1α (stromal derived factor-1 alpha) at 100 ng/ml, TRANCE (TNF-related activation induced cytokine) at 50 ng/ml, FGF1 (fibroblast growth factor acidic) at 10 ng/ml, FGF2 (fibroblast growth factor basic) at 10 ng/ml, BMP4 (bone morphogenetic protein 4) at 100 ng/ml, BMP7 (bone morphogenetic protein 7) at 100 ng/ml, IGF2 (insulin-like growth factor 2) at 100 ng/ml, OSM (Oncostatin M) at 100 ng/ml, NRG1 (Neuregulin-1) at 50 ng/ml, PDGFaa (Platelet derived growth factor a) at 50 ng/ml, PDGFbb (platelet derive growth factor b) at 30 ng/ml, Ang2 (Angiopoeitin 2) at 400 ng/ml, amphiregulin at 100 ng/ml, HMGB 1 (Human high-mobility group box 1 protein) at 50 ng/ml; [2] From Genscript, LIF (Leukemia inhibitory factor) at 20 ng/ml, GM-CSF (Granulocyte macrophage colony stimulating factor) at 25 ng/ml, M-CSF (Macrophage colony stimulating factor) at 50 ng/ml; [3] From Anaspec, PAR1 (Protease activated receptor 1 agonist) at 100 μM; PAR2 (Protease activated receptor 2 agonist; peptide SLIGKV-NH2, Cat. No. 60217-1) at 100 μM; PAR4 (Protease activated receptor […] agonist; peptide AYPGKF-NH2, Cat. No. 60218-1) at 100 μM; [4] From Peprotech, HGF (Hepatocyte Growth Factor) at 100 ng/ml; IL-31 (Interleukin-31) at 50 ng/ml, IL-33 (Interleukin-33) at 50 ng/ml, IL1-a (Interleukin-1 alpha) at 10 ng/ml, CTGF (Connective tissue growth factor) at 20 ng/ml, WISP1 (Wnt-1 inducible signaling pathway protein) at 20 ng/ml, PTHrP ([…] hormone-related protein) at 50 ng/ml, MCP1 (monocyte chemotactic protein-1) at 50 ng/ml; and [5] from Sigma, Fulvestrant at 1 μM. Fresh medium containing ligand and/or inhibitor was added 3-4 days after initial dose, and at Day 7 cells were harvested for western blot analysis.
Cells were harvested by washing once with PBS, and lysing on ice for 10 minutes with scraping (using a Cell Lifter, Corning Inc. #3008) in ice cold RIPA buffer (Sigma R0278) containing Protease inhibitor (Sigma P8340), Phosphatase inhibitors (Sigma P2850, P5726) and 200 μM Sodium Vanadate. Supernatents were micro-centrifuged at max speed, 4° C. for 10 minutes. Protein content was quantitated using the BCA method (Pierce #23225) and samples were normalized to total protein in Laemli buffer and heated at 100° C. for 10 minutes. SDS PAGE was run using a Bis-Tris gel system (Invitrogen NuPAGE) with MOPS buffer (Invitrogen NP0001), transferred onto nitrocellulose using the iBLOT system (Invitrogen) and blocked in PBS-T (0.1% Tween 20), 5% non-fat milk or BSA in guidance with primary Ab supplier requirements. All primary antibodies were incubated overnight at 4° C. in PBS-T (0.1% Tween 20) in either 5% non-fat milk or BSA, diluted to the following working dilutions: anti E Cadherin (Santa Cruz #sc-21791) 1:500 dilution; anti Vimentin (BD Biosciences #550513) 1:2000 dilution;); anti GAPDH HRP conjugate (Santa Cruz sc-25778) 1:1000 dilution; anti β-Actin (Sigma, A5441) 1:10,000 dilution. […]

For the next test, the system named is CFPAC1 cells. The test can be described thus: Doubling time after ligand treatment. The conditions noted are these: after 7 day ligand treatment, versus untreated. On the procedure:
Cells were plated and treated with ligand for 7 days. On day 7, cells were counted and re-plated on 6 cm cell culture dishes. On days 3, 5, 7, 10 and 12, cells were trypsinized and counted to determine the total number of cells in the dish, in duplicate. Doubling time was calculated using the multiple time point method on the website www.doubling-time.com.

B1: OSM: Oncostatin M from R&D systems, used at 100 ng/ml (protein, UniProt P13725 26-221, looked up)
Oncostatin-M: AAIGSCSKEYRVLLGQLQKQTDLMQDTSRLLDPYIRIQGLDVPKLREHCRERPGAFPSEETLRGLGRRGFLQTLNATLGCVLHRLADLEQRLPKAQDLERSGLNIEDLEKLQMARPNILGLRNNIYCMAQLLDNSDTAEPTKAGRGASQPPTPTPASDAFQRKLEGCRFLHGYHRFMHSVGRVFSKWGESPNRSRR
Take B1: the Cell morphology entry with CFPAC-1 cells [1] was “less compact with more elongated cell morphology”. The “Reversal of EMT upon withdrawal of ligand” value in the test on CFPAC-1 cells [2] is reported as “can be reversed”. Also, the “Induction of EMT (E-cadherin down, vimentin up)” value in the test with CFPAC-1 cells [3] was “most complete EMT”. In the test with CFPAC1 cells, the “Increase of doubling time” value is given as “approximately 50%”.
